Literature values, collected in article PMC2363349.

Target: TGF-βRII (Homo sapiens) (UniProt P37173)
Sequence (P37173 23-166): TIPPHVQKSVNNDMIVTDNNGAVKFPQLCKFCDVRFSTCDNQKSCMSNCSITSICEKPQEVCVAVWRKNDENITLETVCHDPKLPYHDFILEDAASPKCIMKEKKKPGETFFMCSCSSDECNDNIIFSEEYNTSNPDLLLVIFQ

Sequence of TGF-β1 (P01137 279-390): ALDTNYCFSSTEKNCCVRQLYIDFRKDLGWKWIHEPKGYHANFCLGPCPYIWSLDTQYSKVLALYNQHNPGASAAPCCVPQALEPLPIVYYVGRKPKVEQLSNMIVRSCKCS

- Kd: 0.5 nM
Substance: TGF-β1 (from UniProt P01137)
